Assay results: the supplement of paper PMC10065799, “High-throughput profiling of sequence recognition by tyrosine kinases and SH2 domains using bacterial peptide display” (eLife, 2023)

Test system: AncSZ
Test: phosphorylation enrichment, bacterial display (enrichment ratio); higher = better substrate or ligand; peptides without Tyr show the background
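Also: 11-residue human phosphosite peptides and single-mutation variants displayed on the E. coli surface, counted by deep sequencing, each peptide's frequency after selection divided by its frequency in the unselected input library; frequency after pTyr selection over input frequency; kinase dosed for 20-30% of maximal phosphorylation in three min.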

| Sequence | phosphorylation enrichment |
| --- | --- |
| QKFMAYLSQGG [HLCS_Y236] | 0.839 |
| LSIDRYHAIVY [NPSR1_Y147] | 0.83 |
| TEAEPYFRSLR [NPHS1_Y1138_YF] | 0.852 |
| GCRSKHVGLWG [KCNQ1_Y184_Y184H] | 0.518 |
| PINLYYLMDLS [ITGB2_Y131_D128N] | 3.58 |
| HIAKVYRRDNP [HARS1_Y156] | 0.982 |
| FRSSLYLLMET [MYO5C_Y633] | 1.24 |
| IEDPYYGNDSD [ACP1_Y133] | 1.5 |
| ISGGGYRACPA [FGB_Y71_R74C] | 0.915 |
| IRRSSYEDSSL [HNF4A_Y144_T139I] | 0.705 |
| FADIAYNFRRG [PAH_Y166_H170R_YF] | 0.966 |
| RLLRGYNQSAY [HLA-C_Y137_D138N] | 0.44 |
| ASTDFYKRGDF [PDHA1_Y243_YF] | 0.719 |
| RGFRQYAFDGK [HLA-A_Y140_D140Y_YF] | 0.77 |
| EEEYEYMNRRR [ERBB3_Y1199_D1194E] | 1.15 |
| DLDFTYIFPNI [PTEN_Y27_L25F_YF] | 3.5 |
| RPGGRYPVARR [SHANK3_Y1569_S1566G] | 0.734 |

| Sequence | phosphorylation enrichment |
| --- | --- |
| LKVDVYRRSHK [FUT3_Y222_G223R] | 1.11 |
| QDRDLYPCPGT [RLF_Y671] | 1.05 |
| KLQKKYGPIYS [CYP17A1_Y60] | 0.433 |
| TQPSPYAVYRF [RPGRIP1_Y823] | 0.912 |
| TDRNLYSKNLV [CFAP58_Y501_S496T] | 0.564 |
| EVTLTYATGIK [NFKB1_Y485_T489I] | 0.896 |
| QYRFIYMAVQH [PTPN11_Y515] | 1.32 |
| ILKPDYQPLAI [HYDIN_Y1072] | 0.613 |
| LVMFTYAIFGM [SCN1A_Y1684_I1683T] | 2.09 |
| KKFPDYIQSAM [SGMS2_Y59_I62S_YF] | 0.621 |
| KKGIVYVFNGR [ITGAV_Y404_I405V] | 0.756 |
| SETDDYAEIIV [PTK2_Y397_D402V] | 1.4 |
| EKIANYKEGTF [CLRN1_Y171_YF] | 0.967 |
| IIEDPYYGNDS [ACP1_Y132] | 1.46 |
| PEVCDYGLGGG [GSTO1_Y239_A236V] | 1.6 |
| LLINKYGLSAH [SCP2_Y151] | 0.877 |

Target: Fes (UniProt P07332)
Sequence (P07332 whole entry, looked up): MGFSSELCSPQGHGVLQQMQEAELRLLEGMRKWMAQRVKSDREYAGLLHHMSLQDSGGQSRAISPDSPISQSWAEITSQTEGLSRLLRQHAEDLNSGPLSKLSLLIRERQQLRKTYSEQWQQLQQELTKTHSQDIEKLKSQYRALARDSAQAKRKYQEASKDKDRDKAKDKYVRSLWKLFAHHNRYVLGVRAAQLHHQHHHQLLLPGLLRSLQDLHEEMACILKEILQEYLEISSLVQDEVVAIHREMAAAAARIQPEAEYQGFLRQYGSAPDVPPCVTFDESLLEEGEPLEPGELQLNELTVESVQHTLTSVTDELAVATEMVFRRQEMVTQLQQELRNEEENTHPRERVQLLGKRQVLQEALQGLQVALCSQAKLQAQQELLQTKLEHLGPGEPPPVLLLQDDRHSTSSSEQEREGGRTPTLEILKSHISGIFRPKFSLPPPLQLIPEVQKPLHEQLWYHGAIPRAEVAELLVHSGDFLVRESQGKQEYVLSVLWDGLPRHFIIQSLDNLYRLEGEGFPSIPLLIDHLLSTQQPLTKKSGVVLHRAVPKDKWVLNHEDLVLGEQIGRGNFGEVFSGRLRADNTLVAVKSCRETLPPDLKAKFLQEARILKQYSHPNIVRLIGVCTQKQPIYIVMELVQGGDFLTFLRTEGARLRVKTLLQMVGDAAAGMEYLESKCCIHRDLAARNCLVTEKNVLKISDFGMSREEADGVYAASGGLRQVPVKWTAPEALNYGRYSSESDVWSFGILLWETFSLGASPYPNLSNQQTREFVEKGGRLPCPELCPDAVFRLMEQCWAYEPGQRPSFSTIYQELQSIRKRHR
Test: as above

| Sequence | phosphorylation enrichment |
| --- | --- |
| QKFMAYLSQGG [HLCS_Y236] | 0.745 |
| LSIDRYHAIVY [NPSR1_Y147] | 1.15 |
| TEAEPYFRSLR [NPHS1_Y1138_YF] | 0.953 |
| GCRSKHVGLWG [KCNQ1_Y184_Y184H] | 0.481 |
| PINLYYLMDLS [ITGB2_Y131_D128N] | 2.62 |
| HIAKVYRRDNP [HARS1_Y156] | 0.989 |
| FRSSLYLLMET [MYO5C_Y633] | 1.37 |
| IEDPYYGNDSD [ACP1_Y133] | 1.39 |
| ISGGGYRACPA [FGB_Y71_R74C] | 0.818 |
| IRRSSYEDSSL [HNF4A_Y144_T139I] | 0.758 |
| FADIAYNFRRG [PAH_Y166_H170R_YF] | 0.649 |
| RLLRGYNQSAY [HLA-C_Y137_D138N] | 0.412 |
| ASTDFYKRGDF [PDHA1_Y243_YF] | 0.795 |
| RGFRQYAFDGK [HLA-A_Y140_D140Y_YF] | 0.66 |
| EEEYEYMNRRR [ERBB3_Y1199_D1194E] | 0.804 |
| DLDFTYIFPNI [PTEN_Y27_L25F_YF] | 1.33 |
| RPGGRYPVARR [SHANK3_Y1569_S1566G] | 0.899 |

| Sequence | phosphorylation enrichment |
| --- | --- |
| LKVDVYRRSHK [FUT3_Y222_G223R] | 1.46 |
| QDRDLYPCPGT [RLF_Y671] | 1.37 |
| KLQKKYGPIYS [CYP17A1_Y60] | 0.468 |
| TQPSPYAVYRF [RPGRIP1_Y823] | 0.834 |
| TDRNLYSKNLV [CFAP58_Y501_S496T] | 0.737 |
| EVTLTYATGIK [NFKB1_Y485_T489I] | 1.15 |
| QYRFIYMAVQH [PTPN11_Y515] | 1.22 |
| ILKPDYQPLAI [HYDIN_Y1072] | 0.65 |
| LVMFTYAIFGM [SCN1A_Y1684_I1683T] | 2.16 |
| KKFPDYIQSAM [SGMS2_Y59_I62S_YF] | 0.65 |
| KKGIVYVFNGR [ITGAV_Y404_I405V] | 0.677 |
| SETDDYAEIIV [PTK2_Y397_D402V] | 1.17 |
| EKIANYKEGTF [CLRN1_Y171_YF] | 0.823 |
| IIEDPYYGNDS [ACP1_Y132] | 1.22 |
| PEVCDYGLGGG [GSTO1_Y239_A236V] | 1.07 |
| LLINKYGLSAH [SCP2_Y151] | 0.99 |

Target: EPHB2 (UniProt P29323)
Sequence (P29323 whole entry, looked up): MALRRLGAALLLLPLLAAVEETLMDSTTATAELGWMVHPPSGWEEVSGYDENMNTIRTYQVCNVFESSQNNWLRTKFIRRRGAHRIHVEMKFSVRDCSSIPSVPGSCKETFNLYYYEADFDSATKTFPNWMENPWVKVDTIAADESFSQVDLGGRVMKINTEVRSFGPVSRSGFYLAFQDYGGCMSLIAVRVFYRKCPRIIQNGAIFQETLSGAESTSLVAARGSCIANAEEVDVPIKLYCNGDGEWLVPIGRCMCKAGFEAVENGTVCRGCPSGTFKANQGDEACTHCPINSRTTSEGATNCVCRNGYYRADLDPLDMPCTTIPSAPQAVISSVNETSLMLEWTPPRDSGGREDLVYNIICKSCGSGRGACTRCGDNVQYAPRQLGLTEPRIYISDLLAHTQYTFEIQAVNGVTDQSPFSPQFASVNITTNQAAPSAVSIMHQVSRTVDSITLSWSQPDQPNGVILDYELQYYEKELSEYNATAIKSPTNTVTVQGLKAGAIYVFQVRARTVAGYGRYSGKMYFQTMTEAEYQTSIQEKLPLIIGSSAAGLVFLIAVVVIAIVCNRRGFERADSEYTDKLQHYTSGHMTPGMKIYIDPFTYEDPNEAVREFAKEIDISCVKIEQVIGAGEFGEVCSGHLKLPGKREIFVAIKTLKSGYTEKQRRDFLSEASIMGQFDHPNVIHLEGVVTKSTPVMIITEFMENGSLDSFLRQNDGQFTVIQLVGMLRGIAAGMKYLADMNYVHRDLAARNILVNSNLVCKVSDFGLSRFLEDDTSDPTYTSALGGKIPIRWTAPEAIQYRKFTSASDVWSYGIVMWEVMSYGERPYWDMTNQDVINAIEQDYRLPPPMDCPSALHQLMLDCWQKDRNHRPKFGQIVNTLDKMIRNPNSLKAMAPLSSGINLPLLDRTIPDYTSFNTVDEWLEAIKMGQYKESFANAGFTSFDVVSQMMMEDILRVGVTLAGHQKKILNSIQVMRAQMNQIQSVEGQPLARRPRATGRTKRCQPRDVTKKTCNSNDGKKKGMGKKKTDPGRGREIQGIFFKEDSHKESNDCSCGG
Test: as above

| Sequence | phosphorylation enrichment |
| --- | --- |
| QKFMAYLSQGG [HLCS_Y236] | 0.803 |
| LSIDRYHAIVY [NPSR1_Y147] | 0.594 |
| TEAEPYFRSLR [NPHS1_Y1138_YF] | 0.519 |
| GCRSKHVGLWG [KCNQ1_Y184_Y184H] | 0.314 |
| PINLYYLMDLS [ITGB2_Y131_D128N] | 6.74 |
| HIAKVYRRDNP [HARS1_Y156] | 0.463 |
| FRSSLYLLMET [MYO5C_Y633] | 0.591 |
| IEDPYYGNDSD [ACP1_Y133] | 0.809 |
| ISGGGYRACPA [FGB_Y71_R74C] | 0.404 |
| IRRSSYEDSSL [HNF4A_Y144_T139I] | 0.543 |
| FADIAYNFRRG [PAH_Y166_H170R_YF] | 0.411 |
| RLLRGYNQSAY [HLA-C_Y137_D138N] | 0.454 |
| ASTDFYKRGDF [PDHA1_Y243_YF] | 0.375 |
| RGFRQYAFDGK [HLA-A_Y140_D140Y_YF] | 0.51 |
| EEEYEYMNRRR [ERBB3_Y1199_D1194E] | 0.402 |
| DLDFTYIFPNI [PTEN_Y27_L25F_YF] | 0.618 |
| RPGGRYPVARR [SHANK3_Y1569_S1566G] | 0.563 |

| Sequence | phosphorylation enrichment |
| --- | --- |
| LKVDVYRRSHK [FUT3_Y222_G223R] | 0.496 |
| QDRDLYPCPGT [RLF_Y671] | 0.693 |
| KLQKKYGPIYS [CYP17A1_Y60] | 0.351 |
| TQPSPYAVYRF [RPGRIP1_Y823] | 1.84 |
| TDRNLYSKNLV [CFAP58_Y501_S496T] | 0.56 |
| EVTLTYATGIK [NFKB1_Y485_T489I] | 0.424 |
| QYRFIYMAVQH [PTPN11_Y515] | 0.947 |
| ILKPDYQPLAI [HYDIN_Y1072] | 0.403 |
| LVMFTYAIFGM [SCN1A_Y1684_I1683T] | 1.43 |
| KKFPDYIQSAM [SGMS2_Y59_I62S_YF] | 0.424 |
| KKGIVYVFNGR [ITGAV_Y404_I405V] | 0.449 |
| SETDDYAEIIV [PTK2_Y397_D402V] | 1.04 |
| EKIANYKEGTF [CLRN1_Y171_YF] | 0.474 |
| IIEDPYYGNDS [ACP1_Y132] | 0.623 |
| PEVCDYGLGGG [GSTO1_Y239_A236V] | 0.812 |
| LLINKYGLSAH [SCP2_Y151] | 0.669 |

Target: FGFR1 (UniProt P11362)
Sequence (P11362 whole entry, looked up): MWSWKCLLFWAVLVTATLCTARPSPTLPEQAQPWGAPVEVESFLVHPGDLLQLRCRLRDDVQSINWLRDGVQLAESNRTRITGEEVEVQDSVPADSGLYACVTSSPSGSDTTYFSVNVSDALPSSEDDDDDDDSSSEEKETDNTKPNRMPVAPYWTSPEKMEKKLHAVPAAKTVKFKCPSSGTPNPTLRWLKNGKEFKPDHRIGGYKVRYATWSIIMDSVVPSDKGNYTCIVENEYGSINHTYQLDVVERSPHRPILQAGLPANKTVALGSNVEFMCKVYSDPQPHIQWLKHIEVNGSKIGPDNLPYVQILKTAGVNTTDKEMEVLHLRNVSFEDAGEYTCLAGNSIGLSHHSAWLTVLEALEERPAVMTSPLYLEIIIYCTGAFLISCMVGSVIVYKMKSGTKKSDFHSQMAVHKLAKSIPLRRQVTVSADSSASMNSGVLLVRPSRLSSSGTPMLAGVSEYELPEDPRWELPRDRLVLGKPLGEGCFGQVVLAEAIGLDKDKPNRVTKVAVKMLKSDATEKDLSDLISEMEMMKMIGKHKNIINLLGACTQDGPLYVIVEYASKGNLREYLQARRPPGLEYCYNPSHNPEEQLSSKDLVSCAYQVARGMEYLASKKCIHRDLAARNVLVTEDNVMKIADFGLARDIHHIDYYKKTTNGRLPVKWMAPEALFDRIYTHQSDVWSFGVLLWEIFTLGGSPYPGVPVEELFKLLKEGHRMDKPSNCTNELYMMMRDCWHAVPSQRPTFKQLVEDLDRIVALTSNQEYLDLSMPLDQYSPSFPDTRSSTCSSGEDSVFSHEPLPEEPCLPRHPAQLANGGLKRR
Test: as above

| Sequence | phosphorylation enrichment |
| --- | --- |
| QKFMAYLSQGG [HLCS_Y236] | 0.466 |
| LSIDRYHAIVY [NPSR1_Y147] | 3.36 |
| TEAEPYFRSLR [NPHS1_Y1138_YF] | 0.399 |
| GCRSKHVGLWG [KCNQ1_Y184_Y184H] | 0.36 |
| PINLYYLMDLS [ITGB2_Y131_D128N] | 16.3 |
| HIAKVYRRDNP [HARS1_Y156] | 0.451 |
| FRSSLYLLMET [MYO5C_Y633] | 0.724 |
| IEDPYYGNDSD [ACP1_Y133] | 0.807 |
| ISGGGYRACPA [FGB_Y71_R74C] | 0.469 |
| IRRSSYEDSSL [HNF4A_Y144_T139I] | 0.411 |
| FADIAYNFRRG [PAH_Y166_H170R_YF] | 0.43 |
| RLLRGYNQSAY [HLA-C_Y137_D138N] | 0.386 |
| ASTDFYKRGDF [PDHA1_Y243_YF] | 0.413 |
| RGFRQYAFDGK [HLA-A_Y140_D140Y_YF] | 0.557 |
| EEEYEYMNRRR [ERBB3_Y1199_D1194E] | 0.429 |
| DLDFTYIFPNI [PTEN_Y27_L25F_YF] | 2.87 |
| RPGGRYPVARR [SHANK3_Y1569_S1566G] | 0.648 |

| Sequence | phosphorylation enrichment |
| --- | --- |
| LKVDVYRRSHK [FUT3_Y222_G223R] | 0.611 |
| QDRDLYPCPGT [RLF_Y671] | 0.484 |
| KLQKKYGPIYS [CYP17A1_Y60] | 0.318 |
| TQPSPYAVYRF [RPGRIP1_Y823] | 0.794 |
| TDRNLYSKNLV [CFAP58_Y501_S496T] | 0.505 |
| EVTLTYATGIK [NFKB1_Y485_T489I] | 0.421 |
| QYRFIYMAVQH [PTPN11_Y515] | 0.667 |
| ILKPDYQPLAI [HYDIN_Y1072] | 0.376 |
| LVMFTYAIFGM [SCN1A_Y1684_I1683T] | 0.728 |
| KKFPDYIQSAM [SGMS2_Y59_I62S_YF] | 0.479 |
| KKGIVYVFNGR [ITGAV_Y404_I405V] | 0.527 |
| SETDDYAEIIV [PTK2_Y397_D402V] | 1.16 |
| EKIANYKEGTF [CLRN1_Y171_YF] | 0.461 |
| IIEDPYYGNDS [ACP1_Y132] | 0.851 |
| PEVCDYGLGGG [GSTO1_Y239_A236V] | 0.689 |
| LLINKYGLSAH [SCP2_Y151] | 0.488 |
